Experimental data as given in paper PMC10899660, “Global fungal-host interactome mapping identifies host targets of candidalysin” (Nature Communications, 2024).

Target: Recombinant Cyclin H (CCNH) protein with a C-HIS tag (human) (UniProt P51946)
Assay: SPR; Biacore T200, 25 °C, 30 μL/min, HBS-EP running buffer; CCNH amine-coupled on a CM5 chip (1200 RU); candidalysin in 1:1 serial dilution, multicycle, association 120 s, dissociation 150 s

Recombinant Cyclin H (CCNH) protein with a C-HIS tag (human), sequence (P51946 whole entry): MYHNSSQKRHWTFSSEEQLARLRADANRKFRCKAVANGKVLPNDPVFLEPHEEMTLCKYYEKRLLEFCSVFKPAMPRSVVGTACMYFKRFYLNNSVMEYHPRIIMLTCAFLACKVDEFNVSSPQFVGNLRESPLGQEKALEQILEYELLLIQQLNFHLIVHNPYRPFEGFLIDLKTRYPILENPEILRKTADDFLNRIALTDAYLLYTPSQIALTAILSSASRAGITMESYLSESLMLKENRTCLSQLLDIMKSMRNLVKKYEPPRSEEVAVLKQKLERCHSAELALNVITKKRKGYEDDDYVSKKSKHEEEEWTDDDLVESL
candidalysin (Ece1-III), synthetic peptide, sequence (Q07730 62-92 limits assumed): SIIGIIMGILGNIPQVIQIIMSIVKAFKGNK

Substance “candidalysin (Ece1-III), synthetic peptide” has a Kd of 17.2 nM, a koff of 0.00171 s⁻¹ and a kon of 99200 M⁻¹ s⁻¹.
